{
  "source": "patent US20230227508A1",
  "about": "“SPLIT INTEIN-BASED SELECTION FOR PEPTIDE BINDERS” (priority 2020, published 2023)",
  "tested_on": "Bacillus subtilis PY79",
  "test": "Haloduracin agar spot assay on indicator strain",
  "format": "cell-based",
  "conditions": "5 μL of cleaved, desalted core peptide in 1:1 methanol:water on LB-agar",
  "experimental": "To assay for antimicrobial activity, the cleaved and desalted core peptides were resuspended in 50 μL 1:1 methanol:water. Bacillus subtilis PY79 was used as indicator strain and was spread on a LB-agar surface, on which 5 μL of either or both haloduracins or a solvent control was added.",
  "data": [
    {"molecule": "haloduracin A2 (peptide) MVNSKDLRNPEFRKAQGLQFVDEVNEKELSSLAGSENLYFQGTTWPCATVGVSVALCPTTKCTSQC", "values": [
      {"measurement": "antibacterial activity, growth inhibition on agar", "result": "minimal antibacterial activity"}
    ]},
    {"molecule": "haloduracin A1 (peptide) MTNLLKEWKMPLERTHNNSNPAGDIFQELEDQDILAGVNGAENLYFQGCAWYNISCRLGNKGAYCTLTVECMPSCN", "values": [
      {"measurement": "antibacterial activity, growth inhibition on agar", "result": "minimal antibacterial activity"}
    ]}
  ]
}
